The text below walks through data of the supplement of paper PMC10567573.

± gives the standard deviation.

The data set in a line: protein stability index of a GFP-peptide fusion (GPS, HEK-293T) (PSI 1-6); higher = more stable.
The mark [1] stands for this setting: treatment: DMSO, c terminus: a fixed tail appended.
Where [2] appears, read: treatment: MLN4924 1 uM, 8 h, c terminus: a fixed tail appended.
Setting [3] is: treatment: DMSO, c terminus: native.
Setting [4] is: treatment: MLN4924 1 uM, 8 h, c terminus: native.
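Also: 24-mer peptide tiles fused after GFP, lentivirally expressed, FACS-sorted into six equal bins by GFP/DsRed ratio, decoded by Illumina sequencing, PSI is the read-weighted mean bin number.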

For the sequence EIIEGNTKSHIMLVQRQMSVIEED [NECAB1], the protein stability index was 3.56 ± 0.35 under setting [1] and 3.73 ± 0.26 under setting [2].

On to EILEIDDLDAIVPAVKKLKVLSY [CEP70], for which the protein stability index runs as follows: under setting [3], 2.87 ± 0.8; under setting [4], 3.1 ± 0.041.

Consider EILHQQNIHQLQNRLSELEVANKD [SASS6], for which the protein stability index came out at 3.99 ± 0.19 under setting [1] and 4.13 ± 0.34 under setting [2].

As for EISLEDLIERERSALGPNVTKITL [ZC3H15], the protein stability index is, setting by setting: under setting [1], 2.77 ± 0.3; under setting [2], 2.96 ± 0.48.

Consider EKALASILLQDHIRDLDVVVVSVA [ATL3], for which the protein stability index was 2.52 ± 0.65 under setting [1] and 2.21 ± 0.53 under setting [2].

On to EKEAKDLTELVQRRITYLQNPKDC [FUT8], for which the protein stability index runs as follows: under setting [1], 4.76 ± 0.17; under setting [2], 4.9 ± 0.13.

As to EKEKKNRKGKDKENGSVSSSETPP [EIF5], the protein stability index is, setting by setting: under setting [1], 5.58 ± 0.24; under setting [2], 5.65 ± 0.13.

With EKIHEMVKKNSAKSMGLKKKAFVW [ACSBG2], the protein stability index under setting [1] worked out at 2.49 ± 0.2 and the protein stability index under setting [2] is 2.45 ± 0.3.

As for EKLAPSEITEELPSSQLMPVKKQL [ZNF396], the protein stability index by setting is: under setting [1], 5.17 ± 0.15; under setting [2], 5.14 ± 0.21.

In the case of EKLTKITRTGPSAWETKKILAVSF [PCMTD2], the protein stability index came to 2.57 ± 0.57 under setting [1] and 2.37 ± 0.66 under setting [2].

In turn, EKMTILQTYFRQNRDEVLDNLLAF [ATP6V1G1] returned a protein stability index under setting [1] of 2.7 ± 0.46 and a protein stability index under setting [2] of 2.632 ± 0.015.

Take EKTGPQLTSRIKGDWIGLYRHFLK [DENND6A]: the protein stability index under setting [1] amounted to 2.15 ± 0.34 and the protein stability index under setting [2] is 2.08 ± 0.21.

As to ELEGDVAEPLAGPACVTVILPSCV [KLHL14], the protein stability index reads like this: under setting [1], 3.32 ± 0.54; under setting [2], 3.14 ± 0.14.

Take ELFRIGGKSPDTNYLFMGDYVDRG [PPP2CA]: the protein stability index reads like this: under setting [1], 2.49 ± 0.39; under setting [2], 2.48 ± 0.11.

In the case of ELFRLRGIKAQVALRLAELARRRR [NOP53], the protein stability index reads like this: under setting [1], 2.36 ± 0.23; under setting [2], 2.55 ± 0.22.

Sequence ELFVREPTGRLPALVRWWNGIGAV [MYORG] displayed a protein stability index under setting [1] of 2.26 ± 0.38 and a protein stability index under setting [2] of 2.4 ± 0.41.

ELNHGRQGENQEHLVIAEMMELGS [FATE1] yielded a protein stability index under setting [1] of 4.3 ± 0.29 and a protein stability index under setting [2] of 4.27 ± 0.36.

In the case of ELQSQLSMKASLEGNLAETENRYC [KRT17], the protein stability index is, setting by setting: under setting [1], 3.93 ± 0.25; under setting [2], 4.18 ± 0.14.

For the sequence ELSPPLSPASHVDVDLTIHGRHID [FOXJ1], the protein stability index reads like this: under setting [1], 4.82 ± 0.18; under setting [2], 4.84 ± 0.064.

On to EMETLETSTKTDSEEGSWAQTLAY [PPFIA4], for which the protein stability index amounted to 5.04 ± 0.15 under setting [1] and 4.62 ± 0.069 under setting [2].

On to ENELMISYLMFLQILVYFSFMSW [FAM98B], for which the protein stability index by setting is: under setting [3], 3.17 ± 0.67; under setting [4], 3.26 ± 0.33.

Regarding EPEKIYAMPDPTVPDSDIKALTTL [ESRRG], the protein stability index is 4.46 ± 0.15 under setting [1] and 4.6 ± 0.2 under setting [2].

For the sequence EPNNIVVLLQTSPYHVDSLLQLSD [TCF25], the protein stability index is, setting by setting: under setting [1], 2.44 ± 0.3; under setting [2], 2.11 ± 0.26.

With EPPHNLFCAPGSWEWNELDHIMEI [SERTAD3], the protein stability index under setting [1] was found to be 2.93 ± 0.13 and the protein stability index under setting [2] is 3.07 ± 0.25.

Consider EPYPSQLLKPIPEYSPEEESEPPA [TRAF3IP2], for which the protein stability index amounted to 5.45 ± 0.12 under setting [1] and 5.66 ± 0.18 under setting [2].

For EQCIKLWLHALHLRQKGNRNTHKD [FEM1B], the protein stability index is 2.39 ± 0.21 under setting [1] and 2.59 ± 0.39 under setting [2].

As to EQIGHILVSWLPRLNAYRGYCSNQ [NET1], the protein stability index is 2.67 ± 0.51 under setting [1] and 2.65 ± 0.18 under setting [2].

As to ERAELAASLGLTQTQVKIWFQNKR [DLX1], the protein stability index turned out to be 3.59 ± 0.34 under setting [1] and 3.87 ± 0.44 under setting [2].

Take EREPVRGQCLDSTDQLEFTVEPRL [RTN2]: the protein stability index stood at 4.78 ± 0.2 under setting [1] and 4.71 ± 0.2 under setting [2].

As for ERPLPNPEGLDSDFLAVLSDYPSP [SLA], the protein stability index reads like this: under setting [1], 4.26 ± 0.39; under setting [2], 4.58 ± 0.41.

As for ERVWALAQEKAADVQARLNRSDHG [FCHSD1], the protein stability index came to 4.23 ± 0.13 under setting [1] and 4.23 ± 0.24 under setting [2].

Turning to ESEDCKLPCNPCATTNASGNSCGP [KRT34], the protein stability index reads like this: under setting [1], 5.21 ± 0.12; under setting [2], 5.25 ± 0.17.

In the case of ESKEPIEEEPTGAGLNKDKETEER [SDE2], the protein stability index worked out at 5.57 ± 0.34 under setting [1] and 5.7 ± 0.13 under setting [2].

Take ESLPRSEIDEKVTDLVQFLLFKYQ [MAGEA10]: the protein stability index under setting [1] was 2.35 ± 0.069 and the protein stability index under setting [2] came to 2.83 ± 0.5.

EVDWEYFYGLLFTSENLKLVHIVC [DFFB] had a protein stability index under setting [1] of 3.34 ± 0.39 and a protein stability index under setting [2] of 2.56 ± 0.94.

For EVKRAFFSKSKELHPDRDPGNPSL [DNAJC4], the protein stability index runs as follows: under setting [1], 3.89 ± 0.12; under setting [2], 4.03 ± 0.37.

As for EVLGPLCLMLLMGTVHCQIVSTQI [PHTF1], the protein stability index by setting is: under setting [1], 3.27 ± 0.15; under setting [2], 3.19 ± 0.2.

On to EVRYYLRQIVSGLKYLHEQEILHR [PLK2], for which the protein stability index worked out at 3.11 ± 1 under setting [1] and 2.91 ± 0.58 under setting [2].

Take EVSADDETPNPPQSAQIACSSPSV [MAGEA10]: the protein stability index runs as follows: under setting [1], 5.57 ± 0.28; under setting [2], 5.42 ± 0.21.

On to EVTADDRKVKSTITLDGGVLVHVQ [FABP4], for which the protein stability index amounted to 3.7 ± 0.37 under setting [1] and 3.99 ± 0.17 under setting [2].

For EVTDTGDPIVRPLWWIAPGDETAH [MYORG], the protein stability index came to 4.25 ± 0.28 under setting [1] and 4.38 ± 0.35 under setting [2].

On to EWETEVEMDKLRASDIMEPNLTYV [CLCN6], for which the protein stability index reads like this: under setting [1], 3.85 ± 0.32; under setting [2], 4.08 ± 0.19.

On to EYLIRLFQEWEAHRNLSQLPNFAF [TCF25], for which the protein stability index stood at 2.32 ± 0.7 under setting [1] and 2.39 ± 0.24 under setting [2].

Consider EYRQKHGVPPLKLCKNLNREAQQY [GLIPR2], for which the protein stability index is, setting by setting: under setting [1], 3.42 ± 0.16; under setting [2], 3.4 ± 0.28.

Regarding FAALRASLVAPLLLELAGEVTDTG [MYORG], the protein stability index runs as follows: under setting [1], 2.13 ± 0.39; under setting [2], 2.36 ± 0.4.

For FAWSQGHRTVKLVPWSQCLQNFLL [WSB1], the protein stability index runs as follows: under setting [1], 1.99 ± 0.83; under setting [2], 2.3 ± 0.031.

Sequence FCLLSCGILTFLAVLGRYVPGLLL [RETREG3] had a protein stability index under setting [1] of 2.36 ± 0.32 and a protein stability index under setting [2] of 2.09 ± 0.23.

In the case of FCNISLFEDLPLQEPQSPQKLNPG [PLAGL1], the protein stability index under setting [1] stood at 3 ± 0.2 and the protein stability index under setting [2] was determined as 3.21 ± 0.25.

In the case of FDEKIVPILKRKLPGSDVSGRLMG [FBXO28], the protein stability index stood at 2.75 ± 0.48 under setting [1] and 3.48 ± 0.47 under setting [2].

With FDLNNLDPELKNLFDMCGISEAQL [WASL], the protein stability index is, setting by setting: under setting [1], 2.62 ± 0.55; under setting [2], 2.83 ± 0.69.

FDRTEWVQIRRLEAAGESLEEEIR [ZC2HC1C]: the protein stability index worked out at 4.02 ± 0.08 under setting [1] and 4.55 ± 0.1 under setting [2].

In the case of FDVDHGICIMDAENITTVSVIKDH [WDR88], the protein stability index under setting [1] was 3.27 ± 0.2 and the protein stability index under setting [2] turned out to be 3.25 ± 0.25.

Turning to FEDEVKRLGWQQQAELQELEERLQ [MTUS2], the protein stability index turned out to be 4.17 ± 0.4 under setting [1] and 4.28 ± 0.54 under setting [2].

As to FGKDFRKGLLKKGACYGDDACFVA [PPTC7], the protein stability index by setting is: under setting [1], 2.24 ± 0.31; under setting [2], 2.53 ± 0.35.

For the sequence FGVAVVITNQVVAQVDGAAMFAAD [RAD51], the protein stability index was 3.26 ± 0.59 under setting [1] and 2.96 ± 0.62 under setting [2].

Consider FIEIELDRQELTYQELLRVCCCEL [ANKRD40], for which the protein stability index stood at 2.67 ± 0.61 under setting [1] and 2.67 ± 0.66 under setting [2].

Consider FKEQLQALIPYVLNPSKLMEKEIN [ATL3], for which the protein stability index amounted to 1.91 ± 0.28 under setting [1] and 2.22 ± 0.24 under setting [2].

Take FKGNKYWAVQGQNVLHGYPKDIYS [MMP1]: the protein stability index under setting [1] was determined as 2.3 ± 0.21 and the protein stability index under setting [2] came out at 2.46 ± 0.2.

As for FLTHFILMNDVIDTSGFPDLSDNR [FBXO33], the protein stability index by setting is: under setting [1], 2.41 ± 0.47; under setting [2], 2.27 ± 0.43.

As for FLVLQSLLERQVEMTPEKFSVLME [FANCE], the protein stability index was determined as 2.13 ± 0.39 under setting [1] and 2.11 ± 0.3 under setting [2].

For the sequence FPAEERARVLDRRGCSRVEGGGTS [ANKRD9], the protein stability index by setting is: under setting [1], 4.42 ± 0.2; under setting [2], 4.53 ± 0.28.

As to FPSLQVTAILIECGADVNVRDSDD [FEM1C], the protein stability index was found to be 2.44 ± 0.18 under setting [1] and 2.37 ± 0.39 under setting [2].

With FQHHAKPNCFRKDPDINMHPFFFA [FADS1], the protein stability index is, setting by setting: under setting [1], 2.2 ± 0.43; under setting [2], 2.29 ± 0.19.

On to FRKIKDHFCPFENQFHTEIQILA [C8orf76], for which the protein stability index came out at 2.69 ± 1 under setting [3] and 3.26 ± 0.27 under setting [4].

With FSAPDPPRPRPVSLSLRLPHQPVT [SMTNL2], the protein stability index reads like this: under setting [1], 3.77 ± 0.12; under setting [2], 3.91 ± 0.27.

Consider FSASERLSLKRELSWYRGRRPRTA [HESX1], for which the protein stability index came out at 2.7 ± 0.28 under setting [1] and 3.22 ± 0.32 under setting [2].

In turn, FSFRYQQELEEEIKELYENFCKHN [ATL3] registered a protein stability index under setting [1] of 2.57 ± 0.38 and a protein stability index under setting [2] of 2.86 ± 0.44.

FSQKSCLVAHQRYHTGKTPFVCPE [ZNF649]: the protein stability index under setting [1] is 2.58 ± 0.13 and the protein stability index under setting [2] was 2.6 ± 0.23.

As to FSQYGRIITSRILVDQVTGVSRGV [ELAVL3], the protein stability index stood at 2.23 ± 0.26 under setting [1] and 2.33 ± 0.23 under setting [2].

Consider FVEDQAVVETVFFLTSRTRALLRR [ZSWIM9], for which the protein stability index reads like this: under setting [1], 2.21 ± 0.25; under setting [2], 2.22 ± 0.14.

As for FVFSTEERTQLRLESLEDTHIMKG [TRIB1], the protein stability index was determined as 2.85 ± 0.63 under setting [1] and 3.36 ± 0.41 under setting [2].

FVGDLSPEITTEDIKAAFAPFGRI [TIA1]: the protein stability index came to 3.11 ± 1 under setting [1] and 2.7 ± 0.18 under setting [2].
